Test results from US20160228506A1, “Compositions and Formulations for Prevention and Reduction of Tumorigenesis, Cancer Cell Proliferation and Invasion, and Methods of Production and Use Thereof in Cancer Treatment” (PRONUTRIA, INC., priority 2013, published 2016).

B1: SEQID-00536: protein of the 168 nutritive polypeptide library (protein, listed as Solanum lycopersicum)
chain: MEEEKHHHHHLFHHKDKAEEGPVDYEKEIKHHKHLEQIGKLGTVAAGAYALHEKHEAKKDPEHAHKHKIEEEIAAAAAVGAGGFAFHEHHEKKDAKKEEKKAEGGHHHLF
B2: SEQID-00545: protein of the 168 nutritive polypeptide library (protein, listed as Saccharomyces cerevisiae)
chain: MLSRAIFRNPVINRTLLRARPGAYHATRLTKNTFIQSRKYSDAHDEETFEEFTARYEKEFDEAYDLFEVQRVLNNCFSYDLVPAPAVIEKALRAARRVNDLPTAIRVFEALKYKVENEDQYKAYLDELKDVRQELGVPLKEELFPSSS
modifications: source: /note="strain ATCC 204508 / S288c"
notes: protein of the 168 nutritive polypeptide library
B3: SEQID-00570: protein of the 168 nutritive polypeptide library (protein, listed as Saccharomyces cerevisiae)
chain: MFLRNSVLRTAPVLRRGITTLTPVSTKLAPPAAASYSQAMKANNFVYVSGQIPYTPDNKPVQGSISEKAEQVFQNVKNILAESNSSLDNIVKVNVFLADMKNFAEFNSVYAKHFHTHKPARSCVGVASLPLNVDLEMEVIAVEKN
modifications: source: /note="strain ATCC 204508 / S288c"
notes: as for B2
B4: SEQID-00591: protein of the 168 nutritive polypeptide library (protein, listed as Saccharomyces cerevisiae)
chain: MLNRCISRNTRLPVNLRIASRFYSDGPLGGAGPGNPQDIFIKRERAKEDYYARQQEREQLAHVKEQLKEHKKKLENLENKINNLSK
modifications: source: /note="strain ATCC 204508 / S288c"
notes: as for B2
B5: SEQID-00540: protein of the 168 nutritive polypeptide library (protein)
chain: MARIAGVDLPRDKRVEIGLTYIYGIGLSRSKEILAETGVNPDTRVKDLTDADVAALRSVIQTNYQVEGDLRRLEAMSIKRLMDIGTYRGRRHRMGLPVRGQRTRTNARTRRGVRRTVAGKKKAASKK
modifications: Arthrospira platensis C1
notes: as for B2
B6: SEQID-00541: protein of the 168 nutritive polypeptide library (protein, listed as Agaricus bisporus)
chain: MVRISVLNDCLKSICNASRRGKRQVIVRPSSKVVVKFLSVMQRHGYIGEFEIIDDHRGGKIIVQLNGRLNKTGVISPRFNVQHNRIEQWINYLLPSRGIGIIVLTTSSGILDHEEARRKNVGGKLLGYVY
modifications: source: /note="var. bisporus"; source: /note="strain H97 / ATCC MYA-4626 / FGSC 10389"
notes: as for B2
B7: SEQID-00562: protein of the 168 nutritive polypeptide library (protein, listed as Lactobacillus acidophilus)
chain: MKKFASFVLGAVAGCAAGFLAGSLLVSDEQVDDVKNKIKDNDKLQDLKKKYDNGTEIVKNQLASFPKNVEDDSELKDFDDIVIDDSNKDDDVTAGDNAQESVDDLNNAEEEHNAEDAEEDKPEA
modifications: source: /note="strain 30SC"
notes: as for B2
B8: SEQID-00555: protein of the 168 nutritive polypeptide library (protein)
chain: MQAQEIIRAIEQEEIESVKTNVQKESIPKIYVGDTVKVGVRITEGGKERIQPYQGTVIAMRNGGINETITVRRIFQGVGVERVFLLHSPRIASIKVIMRGKVRRAKLYYLRDRVGKATRVPQRFDRPL
modifications: Arthrospira platensis NIES-39
notes: as for B2
B9: SEQID-00573: protein of the 168 nutritive polypeptide library (protein, listed as Cicer arietinum)
chain: MAPAKAEKKPAEKKPAAEKAPAEKKPKAEKKISKEGTSDKKKKRVKKSVETYKIYIFKVLKQVHPDIGISSKAMGIMNSFINDIFEKLAQEASRLARYNKKPTITSREIQTAVRLVLPGELAKHAVSEGTKAVTKFTSS
B10: SEQID-00592: protein of the 168 nutritive polypeptide library (protein)
chain: MAQTVVLKVGMSCEGCVGAVKRVLGKMEGVESYDVDIMEQKVTVKGNVTPDAVLQTVSKTGKKTSFWEAEAVTSESATPAGATA
modifications: Zea mays
notes: as for B2
B11: SEQID-00564: protein of the 168 nutritive polypeptide library (protein)
chain: MAPKAEKKPAAKKPAEEEPAAPAEKAPAGKKPDLIKRLPAGKSAGKEGGVDKKGRKKAKKSVETYKIYIFKVLKQVHPDIGISSKAMSIMNSFINDIFEKLAGEAAKLARYNKKPTITSREIQTSVRLVLPGELAKHAVSEGTKAVTKFTSS
modifications: Zea mays
notes: as for B2
B12: SEQID-00581: protein of the 168 nutritive polypeptide library (protein)
chain: MPKRQRKLAPPRGYKMHVKKGDTVQVIAGRDKGKVGEVISTLPKLSKVVVRDVNVRTKHVKPQQEGEGGRIVNFEAPIHSSNVMLYSTKEKVASRVSYTFTEDGRKVRMLKKTGEVID
modifications: Arthrospira platensis NIES-39
notes: as for B2
B13: SEQID-00574: protein of the 168 nutritive polypeptide library (protein, listed as Lactobacillus acidophilus)
chain: MPTINQLVRKGRHSKVTKSKSPALNYSYNSMKKESVFNPAPQMRGVATRVGTMTPKKPNSALRKYARVRLSNLIEVTAYIPGEGHNLQEHSVVLIRGGRVKDLPGVRYHIVRGALDTAGVDGRKQSRSKYGAKKD
modifications: source: /note="strain 30SC"
notes: as for B2
B14: SEQID-00552: protein of the 168 nutritive polypeptide library (protein, listed as Saccharomyces cerevisiae)
chain: MSNMMNKFAEKLQGNDDSHQKGKNAKSSNKERDDMNMDMGMGHDQSEGGMKMGHDQSGTKMNAGRGIANDWKTYENMKK
modifications: source: /note="strain ATCC 204508 / S288c"
notes: as for B2
B15: SEQID-00544: protein of the 168 nutritive polypeptide library (protein, listed as Gadus morhua)
chain: MGTRLHQTNTMKFAALALALLLAVGSHAAAMQSDAPSQLAHIRSAVGMYLDQVKDSAARSLDHLDGTEYESYKAQLATSLDSLQASIKTAQAGAEPYTDAAVAQVMEATTEVRASIMADIETLRTGPGPKREALKKVVDGHI
B16: SEQID-00599: protein of the 168 nutritive polypeptide library (protein, listed as Agaricus bisporus)
chain: MSESLRYLGSLEGHKGWVTAIATSSENPDMILTASRDKTIIVWQLTREDDSYGYPKRILHGHNHFVSDVVISSDGQFALSSSWDHTLRLWDLNTGVTTRRFVGHSSDVLSVSFSADNRQIVSGSRDRTIKLWNTLGECKFDIKEDGHSEWVSCVRFSPNVANPVIVSAGWDKVVKVWELSKFKLKTNHYGHTGYINTVSVSPDGSLAASGGKDGITMLWDLNEGKHLYSLEAGDVVNALVFSPNRYWLCAATASCVKIFDLESKSIVDELKPTYTDVGEDARQPECVSIAWSADGQTLFTGYTDNAVRVWIVTS
modifications: source: /note="var. bisporus"; source: /note="strain H97 / ATCC MYA-4626 / FGSC 10389"
notes: as for B2
B17: SEQID-00590: protein of the 168 nutritive polypeptide library (protein, listed as Lactobacillus acidophilus)
chain: MANKAELVSEVASKTKLTKKEVAAAVDAIFGSIQDNLAKGEKVQLIGFGTFEVRHRAARKGRNPQTGDEIEIPASEVPAFKPGKALKEAVK
modifications: source: /note="strain 30SC"
notes: as for B2

experiment: SGF digest of 168 nutritive polypeptide library, intact protein by LC-MS/MS; format: in vitro ADME; settings: 168 nutritive polypeptide library SGF digest, LC-MS/MS spectral counts
Experimental: The in vitro intact half-life of multiple polypeptides in a complex mixture was determined using the simulated gastric in vitro digestion described above. Briefly, the 168 nutritive polypeptide library was generated as described herein by cloning, transforming, and expressing a gene library encoding 168 proteins as a single mixture. The recombinantly expressed proteins were purified from host cell proteins by IMAC purification as described herein.
The 168 Protein Library was treated with SGF as described above and the t=0 and t=10 min samples were analyzed for intact protein by LC-MS/MS. To begin, 10 μg of sample was loaded onto a 10% SDS-PAGE gel (Invitrogen) and run approximately 5 cm into the gel. The gel was excised into ten fractions from 100 kD to the dye front and the gel slices were processed by washing with 25 mM ammonium bicarbonate, followed by acetonitrile. Gel fractions were then reduced with 10 mM dithiothreitol at 60° C., followed by alkylation with 50 mM iodoacetamide at room temperature. Finally, the samples were digested with trypsin (Promega) at 37° C. for 4 h and the digestions were quenched with the addition of formic acid. The samples were then analyzed by nano LC/MS/MS using an EasynLC 1000 HPLC system interfaced to a ThermoFisher Q Exactive. Peptides were loaded on a trapping column and eluted over a 75 μm analytical column at 350 nL/min; both columns were packed with PepMap C18 3 μm resin (ThemoFisher). A 1 hour gradient was employed. The mass spectrometer was operated in data-dependent mode, with MS and MS/MS performed in the Orbitrap at 70,000 FWHM resolution and 17,500 FWHM resolution, respectively. The fifteen most abundant ions were selected for MS/MS. Data were searched against an appropriate database using Mascot to identify peptides. Mascot DAT files were parsed into the Scaffold software for validation, filtering and to create a nonredundant list per sample. Data were filtered at 1% protein and peptide false discovery rate (FDR) and requiring at least two unique peptides per protein. A full list of detected proteins and their spectral counts (SpC) was generated and reported as a function of each collected gel fraction. SpC are a count of the number of spectra identified for a given protein and are used as a measure of relative protein abundance (Liu, H. et al., Analytical Chemistry 2004, 76: 4193-4201). To calculate the percentage of intact protein remaining at the 10 min time point of the SGF digest the number of SpC representative of intact peptide in the t=10 min sample were divided by the number of SpC representative of intact peptide in the t=0 min sample. The number of SpC representative of intact peptide was defined as the sum of the SpC in the fraction with the highest number of SpC assigned to that protein in the t=0 min sample and the two flanking fractions.

Going from B1 to B2, the “% Intact Protein at 10 min” value falls from 11.8% to 0%.

First: B3
Second: B4
The “% Intact Protein at 10 min” value of the first is higher: 91.4% for the first, 20% for the second.

B5 and B6 are the same in “% Intact Protein at 10 min” value: 0% for the first, 0% for the second.

Compared with B7, B8 is higher in “% Intact Protein at 10 min” value: 0% for the first, 6.8% for the second.

First: B9
Second: B10
The “% Intact Protein at 10 min” value of the first is higher: 66.7% for the first, 24.3% for the second.

First: B11
Second: B12
The “% Intact Protein at 10 min” value of the first is higher: 89.6% for the first, 33.3% for the second.

Going from B13 to B14, the “% Intact Protein at 10 min” value rises from 0% to 79%.

B15 and B16 are the same in “% Intact Protein at 10 min” value: 0% for the first, 0% for the second.

In the case of B17, the “% Intact Protein at 10 min” value is reported as 0%.
